This note sets out measurements from doi:10.1101/2020.05.15.096610 (bioRxiv, 2020).

Series [1] deals with the molecule itself. Nature of the series: cryo-EM structure.
Series [2] concerns the molecule itself. The series can be described thus: cryo-EM structure. The source holds these as a separate data set.

Where two headings read alike, the source gives them in different places.

B1: Campylobacter jejuni MotB(Δ41-60) (natural protein, UniProt Q0PBH3 1-247, looked up)
chain: MAKKHKCPECPAGEKWAVPYADFLSLLLALFIALWAISKTTQTVKEESKTQEKYKGAAKEESDELKSLKQMTMTQQETIKRLQAALDQSDNQVALNLPSKVEFERGSAQIVSADIQDYLKRMAELTTYLPPQAKIEIRGYTDNSDSIIRSYELAYQRAENVLKYFIEGGANLKNISIKSYGLNNPINGNPQTLENNRVEIYFKVDTADTSTQKSVLELINKIGTKAP
For the protein B1, in “cryo-EM structure [1]”, the binding result is “binds”.

B2: Campylobacter jejuni MotB(Δ41-60, D22N) (natural protein, UniProt Q0PBH3 1-247, looked up)
chain: MAKKHKCPECPAGEKWAVPYANFLSLLLALFIALWAISKTTQTVKEESKTQEKYKGAAKEESDELKSLKQMTMTQQETIKRLQAALDQSDNQVALNLPSKVEFERGSAQIVSADIQDYLKRMAELTTYLPPQAKIEIRGYTDNSDSIIRSYELAYQRAENVLKYFIEGGANLKNISIKSYGLNNPINGNPQTLENNRVEIYFKVDTADTSTQKSVLELINKIGTKAP
For the protein B2, in the series “cryo-EM structure [1]”, the binding result is “binds”.

B3: Campylobacter jejuni MotB (natural protein, UniProt Q0PBH3 1-247, looked up)
chain: MAKKHKCPECPAGEKWAVPYADFLSLLLALFIALWAISKTNPAKVEALKTEFVKIFDYTSTQTVKEESKTQEKYKGAAKEESDELKSLKQMTMTQQETIKRLQAALDQSDNQVALNLPSKVEFERGSAQIVSADIQDYLKRMAELTTYLPPQAKIEIRGYTDNSDSIIRSYELAYQRAENVLKYFIEGGANLKNISIKSYGLNNPINGNPQTLENNRVEIYFKVDTADTSTQKSVLELINKIGTKAP
Consider B3, for which the stoichiometry N (as a rule, a count of units in the complex or per binding partner) in the series “cryo-EM structure [1]” came out at 2.

B4: Vibrio alginolyticus PomB (natural protein, UniProt O06874 1-315, looked up)
chain: MDDEDNKCDCPPPGLPLWMGTFADLMSLLMCFFVLLLSFSEMDVLKFKQIAGSMKFAFGVQNQLEVKDIPKGTSIIAQEFRPGRPEPTPIDVIMQQTMDITQQTLEFHEGESDRAGGTKRDEGKLTGGQSPATSTQNNESAEADMQQQQSKEMSQEMETLMESIKKALEREIEQGAIEVENLGQQIVIRMREKGAFPEGSAFLQPKFRPLVRQIAELVKDVPGIVRVSGHTDNRPLDSELYRSNWDLSSQRAVSVAQEMEKVRGFSHQRLRVRGMADTEPLLPNDSDDNRALNRRVEISIMQGEPLYSEEVPVIQ
For the protein B4, the “stoichiometry N” value in the series “cryo-EM structure [2]” worked out at 2.
